Measurements published in publication PMC9365698, “A physical wiring diagram for the human immune system” (Nature, 2022).

What was measured:
Experiment in all cases: SAVEXIS (scalable arrayed multi-valent extracellular interaction screen); biotinylated bait (100 fmol per well) captured on streptavidin-coated 384-well plates; prey multimerised on streptavidin-HRP (25 fmol protein with 6.25 fmol SAV-HRP); 60 min at 20 °C in 2% BSA in HBS pH 7.4 (1 mM MgCl2, 2 mM CaCl2); desthiobiotin washes; TMB absorbance at 650 nm; both bait-prey orientations; primary and secondary screen
Conditions in all cases: both partners purified
JAG1 = target: T1, JAG1 (human, UniProt P78504 34-1067, biotin on the biotin-acceptor site (enzymatic, co-transfected BirA))
T1 construct: JAG1 (Jagged-1), human, full ectodomain; also called Jagged ligands

PVR = target: T2, PVR (human, UniProt P15151 21-343, biotin on the biotin-acceptor site (enzymatic, co-transfected BirA))
T2 construct: PVR (poliovirus receptor), human, full ectodomain
T2 sequence (looked up): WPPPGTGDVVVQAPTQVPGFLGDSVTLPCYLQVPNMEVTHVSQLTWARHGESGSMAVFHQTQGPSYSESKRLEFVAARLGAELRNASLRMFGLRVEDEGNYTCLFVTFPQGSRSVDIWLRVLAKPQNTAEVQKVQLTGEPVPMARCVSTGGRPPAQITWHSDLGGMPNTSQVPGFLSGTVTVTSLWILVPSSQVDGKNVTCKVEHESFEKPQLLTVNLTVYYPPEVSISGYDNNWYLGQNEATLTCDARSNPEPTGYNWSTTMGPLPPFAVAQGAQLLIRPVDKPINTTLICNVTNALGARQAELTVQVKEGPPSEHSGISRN

[1] = target: T3, Plasmodium falciparum P41 protein (Plasmodium falciparum, UniProt Q8I1Y0 21-378)
T3 construct: P41 protein of Plasmodium falciparum; P41 was the bait in two control wells of every screening plate
T3 sequence: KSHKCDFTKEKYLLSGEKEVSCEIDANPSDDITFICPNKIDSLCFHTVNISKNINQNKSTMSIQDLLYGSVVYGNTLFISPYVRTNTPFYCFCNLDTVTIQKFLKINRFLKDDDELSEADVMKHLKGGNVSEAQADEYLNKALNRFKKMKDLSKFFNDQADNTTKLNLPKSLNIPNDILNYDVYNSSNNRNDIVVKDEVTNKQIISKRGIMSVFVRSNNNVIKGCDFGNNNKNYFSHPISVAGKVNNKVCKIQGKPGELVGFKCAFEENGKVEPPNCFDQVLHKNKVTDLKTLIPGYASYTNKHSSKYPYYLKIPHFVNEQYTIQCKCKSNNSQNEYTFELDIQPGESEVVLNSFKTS

B1: VASN (receptor, human, UniProt Q6EMK4 24-575, looked up)
chain: CPSGCQCSQPQTVFCTARQGTTVPRDVPPDTVGLYVFENGITMLDAGSFAGLPGLQLLDLSQNQIASLPSGVFQPLANLSNLDLTANRLHEITNETFRGLRRLERLYLGKNRIRHIQPGAFDTLDRLLELKLQDNELRALPPLRLPRLLLLDLSHNSLLALEPGILDTANVEALRLAGLGLQQLDEGLFSRLRNLHDLDVSDNQLERVPPVIRGLRGLTRLRLAGNTRIAQLRPEDLAGLAALQELDVSNLSLQALPGDLSGLFPRLRLLAAARNPFNCVCPLSWFGPWVRESHVTLASPEETRCHFPPKNAGRLLLELDYADFGCPATTTTATVPTTRPVVREPTALSSSLAPTWLSPTEPATEAPSPPSTAPPTVGPVPQPQDCPPSTCLNGGTCHLGTRHHLACLCPEGFTGLYCESQMGQGTRPSPTPVTPRPPRSLTLGIEPVSPTSLRVGLQRYLQGSSVQLRSLRLTYRNLSGPDKRLVTLRLPASLAEYTVTQLRPNATYSVCVMPLGPGRVPEGEEACGEAHTPPAVHSNHAPVTQAREGNLP
modifications: biotin on the biotin-acceptor site (enzymatic, co-transfected BirA)
notes: VASN (vasorin), human, full ectodomain; also called vasorin
JAG1
  binding result: binds

B2: KIR2DL5A (receptor, human, UniProt Q8N109 22-238, looked up)
chain: HEGGQDKPLLSAWPSAVVPRGGHVTLLCRSRLGFTIFSLYKEDGVPVPELYNKIFWKSILMGPVTPAHAGTYRCRGSHPRSPIEWSAPSNPLVIVVTGLFGKPSLSAQPGPTVRTGENVTLSCSSRSSFDMYHLSREGRAHEPRLPAVPSVNGTFQADFPLGPATHGGTYTCFGSLHDSPYEWSDPSDPLLVSVTGNSSSSSSSPTEPSSKTGIRRH
modifications: biotin on the biotin-acceptor site (enzymatic, co-transfected BirA)
notes: KIR2DL5A, human, full ectodomain
PVR
  binding result: binds

B3: Plasmodium falciparum P12 (natural protein)
chain: HKNLTCDFNDVYKLEFHPNQQTSVTKLCNLTPNVLEKVTIKCGSDKLNYNLYPPTCFEEVYASRNMMHLKKIKEFVIGSSMFMRRSLTPNKINEVSFRIPPNMMPEKPIYCFCENKKTITINGSNGNPSSKKDIINRGIVEIIIPSLNEKVKGCDFTTSESTIFSKGYSINEISNKSSNNQQDIVCTVKAHANDLIGFKCPSNYSVEPHDCFVSAFNLSGKNENLENKLKLTNIIMDHYNNTFYSRLPSLISDNWKFFCVCSKDNEKKLVFTVEASISSSNTKLASRDNTYQDYISN
notes: P12 protein of Plasmodium falciparum; P12 was presented as a prey (multimerised on streptavidin-HRP) for the positive control
[1]
  binding result: binds
